Assay [1] addresses Recombinant CorA (without the predicted signal peptide) (Methylomicrobium album BG8). Nature of the assay: SEC; calibrated Superdex 75 16/60 gel filtration, 20 mM Tris-HCl pH 7.5, 1 mM CaCl2; data not shown. (Size exclusion chromatography separates by hydrodynamic size, large species first.)
In assay [2] the target is CorA, endogenously expressed, purified from Methylomicrobium album BG8 (Methylomicrobium album BG8). Nature of the assay: SEC; calibrated Superdex 75 16/60 gel filtration, 40 mM Tris-HCl pH 8.0, 0.5 M NaCl; data not shown.

By stoichiometry N is commonly meant the number of molecules, sites or subunits per partner or assembly.

In the case of “Recombinant CorA (without the predicted signal peptide) (natural protein)”, in assay [1], the stoichiometry N was 2.

“CorA, endogenously expressed, purified from Methylomicrobium album BG8 (natural protein)”: in assay [2], the stoichiometry N was 2.
